According to IntAct's records for PubMed 35152348:

B1: Proline-serine-threonine phosphatase-interacting protein 1 (Homo sapiens), O43586 (parent)
chain: MMPQLQFKDAFWCRDFTAHTGYEVLLQRLLDGRKMCKDMEELLRQRAQAEERYGKELVQIARKAGGQTEINSLRASFDSLKQQMENVGSSHIQLALTLREELRSLEEFRERQKEQRKKYEAVMDRVQKSKLSLYKKAMESKKTYEQKCRDADDAEQAFERISANGHQKQVEKSQNKARQCKDSATEAERVYRQSIAQLEKVRAEWEQEHRTTCEAFQLQEFDRLTILRNALWVHSNQLSMQCVKDDELYEEVRLTLEGCSIDADIDSFIQAKSTGTEPPAPVPYQNYYDREVTPLTSSPGIQPSCGMIKRFSGLLHGSPKTTSLAASAASTETLTPTPERNEGVYTAIAVQEIQGNPASPAQEYRALYDYTAQNPDELDLSAGDILEVILEGEDGWWTVERNGQRGFVPGSYLEKL
partner: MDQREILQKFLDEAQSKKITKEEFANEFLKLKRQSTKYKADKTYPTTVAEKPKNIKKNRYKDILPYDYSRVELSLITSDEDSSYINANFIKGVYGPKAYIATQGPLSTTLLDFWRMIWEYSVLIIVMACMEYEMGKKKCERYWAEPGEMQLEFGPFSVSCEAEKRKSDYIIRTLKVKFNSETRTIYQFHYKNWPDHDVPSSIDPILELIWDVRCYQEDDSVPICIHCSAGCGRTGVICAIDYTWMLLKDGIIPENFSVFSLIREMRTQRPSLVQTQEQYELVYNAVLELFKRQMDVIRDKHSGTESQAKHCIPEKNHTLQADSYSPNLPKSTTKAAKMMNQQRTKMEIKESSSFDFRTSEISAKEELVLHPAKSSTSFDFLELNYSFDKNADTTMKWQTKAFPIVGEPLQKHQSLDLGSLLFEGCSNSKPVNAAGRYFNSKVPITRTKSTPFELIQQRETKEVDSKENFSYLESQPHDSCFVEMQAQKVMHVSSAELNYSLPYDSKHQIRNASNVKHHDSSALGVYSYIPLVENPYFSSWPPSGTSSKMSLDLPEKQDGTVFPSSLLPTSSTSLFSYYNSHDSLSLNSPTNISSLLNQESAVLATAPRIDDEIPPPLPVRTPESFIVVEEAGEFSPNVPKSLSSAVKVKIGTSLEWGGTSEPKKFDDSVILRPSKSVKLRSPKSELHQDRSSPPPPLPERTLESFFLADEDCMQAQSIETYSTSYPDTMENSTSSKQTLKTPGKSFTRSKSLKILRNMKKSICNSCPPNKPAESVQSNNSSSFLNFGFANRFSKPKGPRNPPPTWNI
B2: Tyrosine-protein phosphatase non-receptor type 22 (Homo sapiens), Q9Y2R2-1 (parent)
chain: B1 partner
B3: Proline-serine-threonine phosphatase-interacting protein 1 (Homo sapiens), O43586 (parent)
chain: B1 chain
partner: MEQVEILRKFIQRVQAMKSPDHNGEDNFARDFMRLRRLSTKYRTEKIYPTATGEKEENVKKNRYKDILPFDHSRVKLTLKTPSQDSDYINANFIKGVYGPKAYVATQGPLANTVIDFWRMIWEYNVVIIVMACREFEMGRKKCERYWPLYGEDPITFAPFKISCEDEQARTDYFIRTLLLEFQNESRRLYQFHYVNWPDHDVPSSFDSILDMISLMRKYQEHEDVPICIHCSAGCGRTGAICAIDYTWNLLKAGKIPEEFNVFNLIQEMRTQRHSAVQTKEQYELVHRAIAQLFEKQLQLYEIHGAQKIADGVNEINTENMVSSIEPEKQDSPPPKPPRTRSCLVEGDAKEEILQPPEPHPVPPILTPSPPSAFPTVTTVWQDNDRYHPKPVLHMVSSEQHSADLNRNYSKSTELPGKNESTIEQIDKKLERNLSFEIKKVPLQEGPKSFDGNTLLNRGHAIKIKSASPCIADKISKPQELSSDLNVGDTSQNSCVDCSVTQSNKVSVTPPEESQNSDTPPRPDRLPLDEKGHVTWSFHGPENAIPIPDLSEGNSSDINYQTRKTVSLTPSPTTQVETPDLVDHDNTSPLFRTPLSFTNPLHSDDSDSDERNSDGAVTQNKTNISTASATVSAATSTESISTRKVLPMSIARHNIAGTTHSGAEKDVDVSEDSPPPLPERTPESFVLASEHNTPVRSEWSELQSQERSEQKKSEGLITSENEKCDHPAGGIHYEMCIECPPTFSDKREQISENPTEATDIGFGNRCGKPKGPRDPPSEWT
B4: Proline-serine-threonine phosphatase-interacting protein 1 (Homo sapiens), O43586 (parent)
chain: B1 chain
partner: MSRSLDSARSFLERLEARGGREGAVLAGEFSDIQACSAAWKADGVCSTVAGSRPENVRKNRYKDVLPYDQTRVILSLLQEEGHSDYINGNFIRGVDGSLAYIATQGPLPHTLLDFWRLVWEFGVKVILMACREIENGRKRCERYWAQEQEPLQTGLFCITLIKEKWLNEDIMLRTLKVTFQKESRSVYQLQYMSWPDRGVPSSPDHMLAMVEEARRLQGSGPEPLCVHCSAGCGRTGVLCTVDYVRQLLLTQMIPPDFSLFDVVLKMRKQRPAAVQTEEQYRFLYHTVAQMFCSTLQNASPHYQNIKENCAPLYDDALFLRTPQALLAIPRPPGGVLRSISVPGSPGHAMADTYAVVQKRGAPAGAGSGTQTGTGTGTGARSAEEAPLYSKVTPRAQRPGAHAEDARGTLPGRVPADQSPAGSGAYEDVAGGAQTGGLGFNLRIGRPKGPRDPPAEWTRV

Variants of: B1
Conditions: with PTPN22, Q9Y2R2-1
For R52Q, the “effect of a mutation on the interaction” value was “with no effect”. In the case of T68M, the “effect of a mutation on the interaction” value is reported as “with no effect”. With V122I the “effect of a mutation on the interaction” value was “with no effect”. For Q219H, the “effect of a mutation on the interaction” value was “with no effect”. For R228C, the “effect of a mutation on the interaction” value was “disrupting interaction strength”. For A230T, the “effect of a mutation on the interaction” value was “with no effect”. In the case of W232A, the “effect of a mutation on the interaction” value is reported as “disrupting interaction strength”. With D246N the “effect of a mutation on the interaction” value was “decreasing interaction strength”. E250K was tested, and the “effect of a mutation on the interaction” value was “disrupting interaction strength”. E250Q was tested, and the “effect of a mutation on the interaction” value was “decreasing interaction strength”. In the case of E257G, the “effect of a mutation on the interaction” value is reported as “with no effect”. E257K was tested, and the “effect of a mutation on the interaction” value was “decreasing interaction strength”. With G258A the “effect of a mutation on the interaction” value was “with no effect”. With D266N the “effect of a mutation on the interaction” value was “with no effect”. In the case of T274M, the “effect of a mutation on the interaction” value is reported as “with no effect”. For E277D, the “effect of a mutation on the interaction” value was “with no effect”. D289H was tested, and the “effect of a mutation on the interaction” value was “with no effect”. V344I was tested, and the “effect of a mutation on the interaction” value was “with no effect”. Y345C was tested, and the “effect of a mutation on the interaction” value was “with no effect”. With D384G the “effect of a mutation on the interaction” value was “with no effect”. With G403E the “effect of a mutation on the interaction” value was “with no effect”. For G403R, the “effect of a mutation on the interaction” value was “with no effect”. In the case of R405C, the “effect of a mutation on the interaction” value is reported as “with no effect”.

Variants of: B1
Conditions: with PTPN22, Q9Y2R2-1
Remark: another data set of the same source
In the case of R228C, the “effect of a mutation on the interaction” value is reported as “decreasing interaction strength”. For E250K, the “effect of a mutation on the interaction” value was “decreasing interaction strength”. With E257G the “effect of a mutation on the interaction” value was “decreasing interaction strength”.

Variants of: B1
Conditions: with PTPN22, Q9Y2R2-1
Remark: another data set of the same source
For W232A, the “effect of a mutation on the interaction” value was “decreasing interaction strength”.

Variants of: B2
Conditions: with ppip1_human PSTPIP1, O43586
R799A was tested, and the “effect of a mutation on the interaction” value was “decreasing interaction strength”. For W805A, the “effect of a mutation on the interaction” value was “decreasing interaction strength”.

Variants of: B3
Conditions: with ptn12_human PTPN12, Q05209
E250K was tested, and the “effect of a mutation on the interaction” value was “disrupting interaction strength”. With Q219H the “effect of a mutation on the interaction” value was “with no effect”. In the case of D246N, the “effect of a mutation on the interaction” value is reported as “with no effect”. With E257G the “effect of a mutation on the interaction” value was “with no effect”. In the case of W232A, the “effect of a mutation on the interaction” value is reported as “disrupting interaction strength”. For E250Q, the “effect of a mutation on the interaction” value was “decreasing interaction strength”. For D266N, the “effect of a mutation on the interaction” value was “with no effect”. For G258A, the “effect of a mutation on the interaction” value was “with no effect”. With T274M the “effect of a mutation on the interaction” value was “with no effect”. In the case of E257K, the “effect of a mutation on the interaction” value is reported as “disrupting interaction strength”. With A230T the “effect of a mutation on the interaction” value was “with no effect”. For R228C, the “effect of a mutation on the interaction” value was “disrupting interaction strength”.

Variants of: B4
Conditions: with ptn18_human PTPN18, Q99952
For T274M, the “effect of a mutation on the interaction” value was “with no effect”. For E250Q, the “effect of a mutation on the interaction” value was “decreasing interaction strength”. For E250K, the “effect of a mutation on the interaction” value was “disrupting interaction strength”. W232A was tested, and the “effect of a mutation on the interaction” value was “disrupting interaction strength”. For D266N, the “effect of a mutation on the interaction” value was “with no effect”. In the case of G258A, the “effect of a mutation on the interaction” value is reported as “with no effect”. E257G was tested, and the “effect of a mutation on the interaction” value was “with no effect”. With R228C the “effect of a mutation on the interaction” value was “disrupting interaction strength”. With E257K the “effect of a mutation on the interaction” value was “disrupting interaction strength”. D246N was tested, and the “effect of a mutation on the interaction” value was “decreasing interaction strength”. For Q219H, the “effect of a mutation on the interaction” value was “with no effect”. In the case of A230T, the “effect of a mutation on the interaction” value is reported as “with no effect”.
